Reference: US8632989B1, “Mutant insulin degrading enzyme and methods of use” (University of Kentucky Research Foundation, priority 2011, dated 2014)

B1: IDE^K898A,K899A,S901A: Rat IDE residues 41-1019 bearing the mutations K898A, K899A, S901A; ATP binding site mutant (protein, listed as Rattus norvegicus)
chain: MRNGLVWLLHPALPSTLHSILGARPPPVKRLCGFPKQIYSTMNNPAIQRIEDHIVKSPEDKREYRGLELANGIKVLLISDPTTDKSSAALDVHIGSLSDPPNIPGLSHFCEHMLFLGTKKYPKENEYSQFLSEHAGSSNAFTSGEHTNYYFDVSHEHLEGALDRFAQFFLCPLFDASCKDREVNAVDSEHEKNVMNDAWRLFQLEKATGNPKHPFSKFGTGNKYTLETRPNQEGIDVREELLKFHSTYYSSNLMAICVLGRESLDDLTNLVVKLFSEVENKNVPLPEFPEHPFQEEHLKQLYKIVPIKDIRNLYVTFPIPDLQQYYKSNPGHYLGHLIGHEGPGSLLSELKSKGWVNTLVGGQKEGARGFMFFIINVDLTEEGLLHVEDIILHMFQYIQKLRAEGPQEWVFQECKDLNAVAFRFKDKERPRGYTSKIAGKLHYYPLNGVLTAEYLLEEFRPDLIDMVLDKLRPENVRVAIVSKSFEGKTDRTEQWYGTQYKQEAIPEDVIQKWQNADLNGKFKLPTKNEFIPTNFEILALEKDATPYPALIKDTAMSKLWFKQDDKFFLPKACLNFEFFSPFAYVDPLHCNMAYLYLELLKDSLNEYAYAAELAGLSYDLQNTIYGMYLSVKGYNDKQPILLKKITEKMATFEIDKKRFEIIKEAYMRSLNNFRAEQPHQHAMYYLRLLMTEVAWTKDELKEALDDVTLPRLKAFIPQLLSRLHIEALLHGNITKQAALGVMQMVEDTLIEHAHTKPLLPSQLVRYREVQLPDRGWFVYQRRNEVHNNCGIEIYYQTDMQSTSENMFLELFCQIISEPCFNTLRTKEQLGYIVFSGPRRANGIQGLRFIIQSEKPPHYLESRVEAFLITMEKAIEDMTEEAFQKHIQALAIRRLDKPAALAAECAKYWGEIISQQYNYDRDNIEVAYLKTLSKDDIIKFYKEMLAVDAPRRHKVSVHVLAREMDSCPVVGEFPSQNDINLSEAPPLPQPEVIHNMTEFKRGLPLFPLVKPHINFMAAKL
modifications: wild-type Insulin Degrading Enzyme (IDE) from rat

Legend:
[1] = target: T1, IDE (Rattus norvegicus, UniProt P35559); experiment: γ-methylene-ATP versus ATP activation of IDE-dependent hydrolysis of Abz-[…]-EDDnp; format: biochemical; conditions: 10 μM substrate, compared with ATP
T1 construct: hexahistidine (N); made in house; host or cells: Sf9 insect cells (baculovirus, pFastBac HTb)
T1 sequence (P35559 41-1019): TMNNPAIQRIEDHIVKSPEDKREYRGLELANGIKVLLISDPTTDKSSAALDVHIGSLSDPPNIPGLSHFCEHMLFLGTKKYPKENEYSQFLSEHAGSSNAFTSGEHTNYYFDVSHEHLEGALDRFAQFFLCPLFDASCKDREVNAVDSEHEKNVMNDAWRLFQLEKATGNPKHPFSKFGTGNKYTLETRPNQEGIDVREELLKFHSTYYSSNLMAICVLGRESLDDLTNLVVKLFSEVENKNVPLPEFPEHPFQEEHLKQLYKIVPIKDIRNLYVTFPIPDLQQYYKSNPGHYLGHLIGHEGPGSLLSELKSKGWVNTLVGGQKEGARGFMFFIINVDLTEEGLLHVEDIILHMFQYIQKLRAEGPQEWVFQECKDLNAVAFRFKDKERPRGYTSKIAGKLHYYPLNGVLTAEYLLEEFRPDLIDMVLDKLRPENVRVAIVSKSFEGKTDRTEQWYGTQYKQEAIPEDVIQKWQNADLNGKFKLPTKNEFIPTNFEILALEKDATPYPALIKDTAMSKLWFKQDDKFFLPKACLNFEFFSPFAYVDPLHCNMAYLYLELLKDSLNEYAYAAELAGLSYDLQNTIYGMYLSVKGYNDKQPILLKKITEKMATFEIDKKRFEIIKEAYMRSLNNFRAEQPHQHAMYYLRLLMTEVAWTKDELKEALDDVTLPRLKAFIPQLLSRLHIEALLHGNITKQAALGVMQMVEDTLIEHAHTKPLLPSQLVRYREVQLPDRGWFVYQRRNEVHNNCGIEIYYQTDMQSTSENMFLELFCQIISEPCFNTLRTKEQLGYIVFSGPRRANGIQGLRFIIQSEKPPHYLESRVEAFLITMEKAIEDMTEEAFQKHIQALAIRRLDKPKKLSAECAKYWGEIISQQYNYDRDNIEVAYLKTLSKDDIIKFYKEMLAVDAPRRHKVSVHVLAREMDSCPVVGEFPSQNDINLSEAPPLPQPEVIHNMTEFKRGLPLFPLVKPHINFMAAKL
Method: Activity was determined in 50 mM Tris-HCl, pH 7.4 with 10 μM Abz-[…]-EDDnp (SEQ ID NO:3) as substrate and indicated concentrations of ATP or γ-methylene-ATP. Reactions contained 0.1 μg of protein.
(§1) IDE activity was determined by measuring the increase in fluorescence that occurs when the enzyme cleaves the internally quenched fluorogenic substrate Abz-[…]-EDDnp (SEQ ID NO:3) at the R—K bond (Song et al., Journal of Biologial Chemistry 276, 1152-1155 (2001)). The reaction was followed on a SpectraMax Gemini XS fluorescence plate reader using an excitation and emission wavelengths of 318 nm and 419 nm, respectively. Initial velocities were determined using SoftMax Pro 4.0 and kinetic constants calculated using GraphPad Prism 4.0. ATPase activity was measured by following Pi release with acid-molybdate as described by Harder et al. (Harder et al., Biochemical Journal 298 (Pt 2), 395-401 (1994)).

[2] = test system: Abz-GGFLRKHGQ-EDDnp; experiment: Activation by ATP of Abz-[…]-EDDnp hydrolysis, IDE and ATP binding site mutants; format: biochemical; conditions: 10 μM Abz-GGFLRKHGQ-EDDnp as substrate
Method: Activity was determined in 50 mM Tris-HCl, pH 7.4 with 10 μM Abz-[…]-EDDnp (SEQ ID NO:3) as substrate at the indicated concentrations of ATP (panel A), PPPi (panel B) or, TNP-ATP (panel C). Each reaction contained 0.5 μg of enzyme.
as §1

[3] = test system: Saccharomyces cerevisiae; experiment: IDE activity assay in yeast, serial dilution mating test; format: cell-based; conditions: yeast assays
Method: Panel A depicts immunoblot of yeast-expressed IDE and IDE^K898A,K899A,S901A. Equivalent percentage amounts of total cellular extracts from yeast containing an empty expression vector or plasmids encoding IDE or the IDE^K898A,K899A,S901A mutant were analyzed by SDS-PAGE and immunoblotting using an IDE-specific antibody. […] An excess of MATa yeast were mixed with decreasing numbers of MATa cells deficient for Axl1p and Step 23p that were transformed with either an empty expression vector or a vector encoding IDE or IDE^K898A,K899A,S901A as indicated. Mating, which leads to colony growth, is dependent on production of mature a-factor pheromone by plasmid-encoded IDE. […] Concentrated samples of a-factor recovered from yeast bearing the indicated expression vector were spotted at the indicated dilutions on a lawn of RC757 MATa cells, which undergo growth arrest upon exposure to a-factor pheromone. […]
The assays take advantage of the ability of IDE, in lieu of the yeast M16 metallopeptidases Axl1p and Step 23p, to participate in the proteolytic maturation of yeast a-factor mating pheromone. […] Growth of diploid colonies, indicative of mating, was scored 3 days after incubation of plates at 30° C. […] Results of mating tests and halo assays were recorded by scanning plates with a Microtek flatbed scanner and importing digitized images into Photoshop and PowerPoint.

[4] = test system: Abz-GGFLRKHGQ-EDDnp; experiment: Enzyme activity assay, kinetics of IDE and ATP binding site mutants with fluorogenic substrate; format: biochemical; conditions: rat IDE, Abz-GGFLRKHGQ-EDDnp as substrate
Method: Reactions were conducted in 50 mM Tris-HCl, pH 7.4.
as §1

[5] = TNP-ATP fluorescence measurements, IDE and ATP binding site mutants; conditions: 1.5 μM enzyme, 10 μM TNP-ATP, λexc=403 nm
Method: Fluorescence emission spectra were recorded on a Perkin-Elmer LS 55 Luminescence spectrometer with 1.5 μM of IDE, IDE^R429S or IDE^K898A,K899A,S901A in 50 mM Tris-HCl, pH 7.4 with 10 μM TNP-ATP. Fluorescence spectra were recorded with a λexc=403 nm.
TNP-ATP [2′,3′-O-(2,4,6-Trinitrophenyl)adenosine-5′-triphosphate] fluorescence was monitored at excitation and emission wavelengths of 403 nm and 547 nm, respectively, using a Perkin-Elmer LS55 Luminescence Spectrometer at 20±0.1° C. TNP-ATP (Molecular Probes, Inc.) as supplied was diluted to 4 mM with 50 mM Tris-HCl, pH 7.4, and added to achieve the indicated concentrations.

[6] = test system: Abz-GGFLRKHGQ-EDDnp; experiment: Effect of bradykinin on Abz-[…]-EDDnp hydrolysis, IDE and ATP binding site mutants; format: biochemical; conditions: 10 μM substrate, bradykinin as activator
Method: Activity was determined in 50 mM Tris-HCl, pH 7.4 with 10 μM Abz-[…]-EDDnp (SEQ ID NO:3) as substrate and indicated concentrations of bradykinin. Reactions contained 0.5 μg of protein.
as §1

Molecule | ability to activate Abz-GGFLRKHGQ-EDDnp hydrolysis by IDE [1] | level of activation by ATP, of the wild type value [2] | intracellular function relative to unmodified IDE [3] | Hill coefficient [4] | Km [4] | kcat [4] | Vmax ([4]; 50 mM Tris-HCl, pH 7.4) | fluorescence associated with TNP-ATP binding, relative to wild type IDE [5] | rate of Abz-GGFLRKHGQ-EDDnp hydrolysis with bradykinin, relative to wild type IDE [6]
Nc1ncnc2c1ncn2[C@@H]1O[C@H](COP(=O)(O)OP(=O)(O)CP(=O)(O)O)[C@@H](O)[C@H]1O [γ-methylene ATP] | nearly as well as ATP | – | – | – | – | – | – | – | –
B1 | – | even less activation | reduced intracellular function | 1.7 ± 0.1 | 17.3 ± 1 mM | 0.258 ± 0.01 s⁻¹ | 140.8 ± 5.5 nmol/min/mg | lower fluorescent yield | significantly reduced
